Laboratory results published in paper PMC12052392 (PLOS Pathogens, 2025).

Key:
[1] = biological target: PANG/GD spike (S) protein expressed on HEK-293T cells (Pangolin coronavirus Guangdong …, strain); assay: flow cytometry on cells; conditions: one partner purified
[2] = biological target: HKU3 spike (S) protein expressed on HEK-293T cells (Bat SARS-like coronavirus HKU3, GenBank …, UniProt A0A7G6UAJ9, strain); assay: flow cytometry on cells; conditions: one partner purified
[3] = biological target: WIV1 spike (S) protein expressed on HEK-293T cells (Bat SARS-like coronavirus WIV1 …, UniProt U5WI05, strain); assay: flow cytometry on cells; conditions: one partner purified
[4] = biological target: SARS-CoV-2 spike (S) protein, full-length, expressed on the surface of HEK-293T cells (SARS-CoV-2 prototype (MN908947.3), UniProt P0DTC2); assay: flow cytometry on cells; conditions: one partner purified
[5] = biological target: SARS-CoV spike (S) protein expressed on HEK-293T cells (SARS-CoV, GenBank AY278554.2, UniProt P59594); assay: flow cytometry on cells; conditions: one partner purified
[6] = biological target: T1, GST-fused truncated S2 protein S2 (T1076-H1159) (SARS-CoV-2 prototype (MN908947.3), UniProt P0DTC2); assay: far-Western, overlay or dot blot; conditions: both partners purified
T1 construct: not shown: GST, N-terminal, kept

[7] = biological target: T2, GST-fused truncated S2 protein S2 (P1140-L1152) (SARS-CoV-2 prototype (MN908947.3), UniProt P0DTC2); assay: ELISA; […], room temperature; […]; conditions: both partners purified
T2 construct: not shown: GST, N-terminal, kept
T2 chain: PLQPELDSFKEEL

[8] = biological target: T3, GST-fused truncated S2 protein S2 (L1141-L1152) (SARS-CoV-2 prototype (MN908947.3), UniProt P0DTC2); assay: ELISA; […], room temperature; […]; conditions: both partners purified
T3 construct: not shown: GST, N-terminal, kept
T3 chain: LQPELDSFKEEL

[9] = biological target: T4, GST-fused truncated S2 protein S2 (D1139-L1152) (SARS-CoV-2, MN908947.3); assay: ELISA; […], room temperature; […]; conditions: both partners purified
T4 construct: not shown: GST, N-terminal, kept
T4 chain: DPLQPELDSFKEEL

[10] = biological target: S2 (T1076-Q1208) protein as coated in ELISA (devoid of the His tag) (SARS-CoV-2, MN908947.3, UniProt P0DTC2); assay: ELISA; […], room temperature; […]; conditions: both partners purified
[11] = biological target: T5, GST-fused truncated S2 protein S2 (P1140-D1153) (SARS-CoV-2, MN908947.3, UniProt P0DTC2); assay: ELISA; […], room temperature; […]; conditions: both partners purified
T5 construct: not shown: GST, N-terminal, kept
T5 chain: PLQPELDSFKEELD

B1: nanobody H17 (VHH)
VHH: EVQVVESGGGLVQTGGSLRLSCAASGSAFSSYAVNWYRQAPGKQREPVAAIGSFNTVYSDSVKGRFTISRDNAKNTVYLQMNSLKPEDTAVYVCNARRGATNYWGQGTQVTVSP
notes: also called anti-SH nNb H17; not shown: His6, C-terminal, kept
Question: What does the source list for B1?
Answer: binding result [1]: binds; binding result [2]: binds; binding result [3]: binds; binding result [4]: binds; binding result [5]: binds; binding result [6]: binds; binding result [7]: no binding (tested: 200 nM); binding result [8]: no binding (tested: 200 nM); EC50 [9]: 11.3 nM; binding result [10]: binds; binding result [11]: no binding (tested: 200 nM)
